These substances were tested against T1, CD82 polypeptide (human) (human) (assay: IP with anti CD82 antibodies, human myotubes, mass spectrometry).
T1 sequence (P27701 whole entry, looked up): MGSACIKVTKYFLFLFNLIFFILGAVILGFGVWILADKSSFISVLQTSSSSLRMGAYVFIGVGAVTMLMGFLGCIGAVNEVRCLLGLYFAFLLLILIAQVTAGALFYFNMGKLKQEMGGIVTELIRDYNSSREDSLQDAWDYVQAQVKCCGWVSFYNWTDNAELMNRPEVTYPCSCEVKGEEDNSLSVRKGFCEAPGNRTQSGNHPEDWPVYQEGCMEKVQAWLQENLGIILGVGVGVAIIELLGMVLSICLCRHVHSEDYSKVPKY

Chain of Annexin A2 (human) (P07355 2-339 limits assumed): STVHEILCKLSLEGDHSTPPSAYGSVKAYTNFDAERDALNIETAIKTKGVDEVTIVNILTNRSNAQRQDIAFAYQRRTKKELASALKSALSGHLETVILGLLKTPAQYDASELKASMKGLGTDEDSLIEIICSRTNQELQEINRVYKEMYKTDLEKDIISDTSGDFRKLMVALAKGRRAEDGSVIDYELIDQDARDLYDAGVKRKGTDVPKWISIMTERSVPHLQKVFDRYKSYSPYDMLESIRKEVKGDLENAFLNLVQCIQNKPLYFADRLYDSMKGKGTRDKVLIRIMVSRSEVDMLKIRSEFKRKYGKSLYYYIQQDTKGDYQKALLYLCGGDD

Compared with “Annexin A2 (human) (from UniProt P07355)”, Dysferlin (from UniProt O75923) is higher in Total: 5 for the first, 32 for the second.

First: Filamin A (from UniProt P21333)
Second: Filamin B (from UniProt O75369)
The Total of the first is higher: 30 for the first, 3 for the second.

Going from Filamin C (from UniProt Q14315) to Myoferlin (from UniProt Q9NZM1), the Total rises from 24 to 32.

Going from “nonmuscle myosin IIA (from UniProt P35579)” to profilin (from UniProt P07737), the Total falls from 77 to 3.

Going from “Annexin A2 (human) (from UniProt P07355)” to Dysferlin (from UniProt O75923), the Unique rises from 5 to 31.

First: Filamin A (from UniProt P21333)
Second: Filamin B (from UniProt O75369)
The Unique of the first is higher: 30 for the first, 3 for the second.

Going from Filamin C (from UniProt Q14315) to Myoferlin (from UniProt Q9NZM1), the Unique rises from 24 to 31.

Compared with “nonmuscle myosin IIA (from UniProt P35579)”, profilin (from UniProt P07737) is lower in Unique: 64 for the first, 3 for the second.

Each substance was assayed against CD82 (mouse) (mouse) (UniProt P40237) (assay: IP with anti CD82 antibodies, mouse muscle tissue, mass spectrometry).

“G3P_MOUSE (from UniProt P16858) (enzyme)” and KV2A7_MOUSE are the same in Total: 2 for the first, 2 for the second.

Work on TBA1A_MOUSE (from UniProt P68369) yielded a Total of 3.

“G3P_MOUSE (from UniProt P16858) (enzyme)” and KV2A7_MOUSE are the same in Unique: 2 for the first, 2 for the second.

Substance TBA1A_MOUSE (from UniProt P68369) has a Unique of 3.
